The target of this assay is T1, [FeFe]-hydrogenase CaHydA from Clostridium acetobutylicum (Clostridium acetobutylicum) (UniProt Q59262).
T1 sequence: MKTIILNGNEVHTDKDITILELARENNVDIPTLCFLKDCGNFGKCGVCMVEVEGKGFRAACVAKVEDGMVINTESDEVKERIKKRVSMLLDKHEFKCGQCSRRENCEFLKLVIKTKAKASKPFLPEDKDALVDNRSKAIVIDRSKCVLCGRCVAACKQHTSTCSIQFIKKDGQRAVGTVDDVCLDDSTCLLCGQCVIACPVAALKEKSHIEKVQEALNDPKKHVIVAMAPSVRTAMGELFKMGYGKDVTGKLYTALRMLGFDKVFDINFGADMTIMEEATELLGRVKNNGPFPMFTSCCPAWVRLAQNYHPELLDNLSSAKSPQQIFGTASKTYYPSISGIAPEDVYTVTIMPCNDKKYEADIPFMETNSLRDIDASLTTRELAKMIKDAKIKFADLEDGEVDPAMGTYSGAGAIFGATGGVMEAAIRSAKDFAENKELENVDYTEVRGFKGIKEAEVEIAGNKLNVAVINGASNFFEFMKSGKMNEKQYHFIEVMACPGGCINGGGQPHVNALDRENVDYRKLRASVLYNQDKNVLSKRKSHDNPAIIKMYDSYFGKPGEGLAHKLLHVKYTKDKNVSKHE

These results are taken from PMC10946529.

Ac-GCGGGCGGCGGCGY-NH2 (also: [4Fe4S] cluster coordinated by the four Cys) [[4Fe4S]-peptide maquette Mq5 (Ac-…-NH2)] registered a turnover frequency (TOF) of electron transfer from CaHydA to the Mq5 cluster in H2 oxidation, assuming cluster concentration equal to the peptide concentration of 79 s⁻¹ and a turnover frequency (TOF) of electron transfer from CaHydA to the Mq5 cluster in H2 oxidation, corrected for about 40 % cluster formation relative to FdM1 of 31 s⁻¹.
